Assay results as given in the RNAGym collection of RNA variant scans (doi:10.7554/elife.80360).

B1: HDV Ribozyme (parent)
chain: GGCCGGCAUGGUCCCAGCCUCCUCGCUGGCGCCGGCUGGGCAACAUUCCGAGGGGACCGUCCCCUCGGUAAUGGCGAAUGGGACCCA

Variants of: B1
Experiment: self-cleavage, relative activity (ratio to wild type); higher = more cleavage; co-transcriptional

Variant	self-cleavage
G5C G82U	0.0594
G5A U69C	0.208
G5A U69A	0.0519
G5U A51U	0.688
G5U A51G	0.875
G5U G40C	0.115
G5U G40A	0.364
G5U G40U	0.155
G5C U65G	0.0978
G5C U65C	0.222
G5U C61U	0.399
G5U G67C	0.582
G5U G67A	0.32
G5U G67U	0.364
G5U C49G	0.0831
G5C U20A	0
G5C U20G	0
G5U U37G	0.0755
G5U U37C	0.519
G5C G17C	0.151
G5U U79A	0.104
G5U U79C	0.123
G5U G54C	0.867
G5U C18U	0.0504

Variant	self-cleavage
G5U C18G	0
G5U C48G	0.554
G5A G82A	0.0554
G5A G82U	0.0354
G5C C58G	0.378
G5U A87U	0.293
G5U U23A	0.578
G5U U23G	0
G5C G10A	0.208
G5A U9G	0.111
G5C G25A	0.0639
G5C G25C	0
G5C C48A	0.0875
G5A U27A	0.504
G5A U27C	0.0594
G5A U27G	0.217
G5U C75G	0.246
G5U C75A	0.101
G5C C22U	0.151
G5C C22G	0
G5A G81C	0.0791
G5U C66A	0.609
G5U C66U	0.677
G5U C84U	0.219

Variant	self-cleavage
G5U A42U	0.208
G5U A42G	0.249
G5C C14G	0.111
G5C C13A	0.0755
G5C C13U	0.133
G5C G38A	0.199
G5C G38C	0.108
G5C C66U	0.106
G5C C66A	0.172
G5A C66G	0.244
G5A C66U	0.305
G5A U37G	0.0504
G5C G52U	0.23
G5U G81A	0.147
G5U G81C	0
G5C G55A	0.175
G5C G55U	0.17
G5A G53C	0.302
G5A G53A	0.248
G5A C24U	0
G6A A8C	0.323
G5C C15U	0.356
G5C C15A	0.262
G5U G10A	0.135

Variant	self-cleavage
G5C U23C	0.208
G5C U23A	0
G5C U23G	0.0615
G5A C85G	0.147
G5A C36U	0.18
G5A C36A	0.0627
G5U C19A	0.256
G5U C19U	0.0923
G5U C19G	0
G5C A42U	0
G5C A42C	0.115
G5U G80C	0.0811
G5C G76C	0.199
G5C G76U	0.378
G5C U47G	0.0536
G5C U47C	0.0594
G5A G52U	0.237
G5U U27C	0.0978
G5A C75G	0
G5A C75U	0.0346
G5A C75A	0.113
G5U G59C	0.415
G5A G35A	0.0692
G5A G35C	0.119

Variant	self-cleavage
G5C G39A	0
G5C G39C	0.0462
G5C G39U	0.0346
G5U C14A	0.0791
G5U C14G	0.185
G5A C18A	0.0875
G5A U65G	0
G5A U65A	0.259
G5C G34A	0.0692
G5C G34C	0
G5C G34U	0.0426
G5C G73A	0.0554
G5C G73C	0.0639
G5C G68C	0
G5C G68A	0.208
G5C C61A	0.432
G5U C63G	0
G5U C63A	0.332
G5U C63U	0.38
G5A G6C	0.0536
G5A G6U	0.0923
G5A G28U	0
G5U U47G	0.222
G5A C86A	0.132

Variant	self-cleavage
G5A C86U	0.396
G5U A56G	0.391
G5C C7G	0
G5C C7U	0.0462
G5C C7A	0.119
G5U G74U	0
G5C U27A	0.227
G5C U27C	0
G5U C85A	0.594
G5U C85U	0.399
G5C C85A	0.199
G5C C85G	0.0755
G5A C44G	0.0369
G5A C48U	0.0405
G5C C62G	0.145
G5A C26G	0.427
G5A C26A	0.522
G5C C44U	0.0504
G5A U72C	0.142
G5A U72G	0.147
G5A U72A	0.101
G5U U46C	0
G5U U46G	0
G5U C22G	0.0615

Variant	self-cleavage
G5A C57U	0.106
G5A C57G	0.138
G5A C57A	0.0449
G5C U79C	0.141
G5C U79A	0.185
G5C G59C	0.0791
G5A G29A	0.155
G5A G29C	0.0755
G5A G29U	0.0519
G5C A77C	0
G5C A77G	0.0475
G5C G53U	0.291
G5U A8G	0.356
G5U A8U	0.208
G5U G38C	0.0875
G5U G29C	0
G5A C33A	0.219
G5A C33U	0.831
G5A U20C	0
G5A G80C	0.0563
G5U U65G	0.475
G5A G34U	0.0282
G5U A70U	0.222
